The values below come from patent US20190367612A1 (Daiichi Sankyo, published 2019).

To fix the notation:
B1: human GPRC5D amino-terminal peptide MYKDCIESTGDYFLLCDAEGPWGIILE-K(Biotin)-NH2, having an intramolecular disulfide bond (peptide)
peptide: MYKDCIESTGDYFLLCDAEGPWGIILEK(Biotin)-NH2
modifications: disulfide 5-16 (inferred)
notes: Peptide Institute synthetic peptide; also called amino-terminal peptide of biotinylated human GPRC5D (disulfide bond present)

Bridge positions count the residues as written; N and C are the ends. Ends that are not written are not given here. * marks the point of attachment. Biotin = O=C1N[C@H]2[C@H](CS[C@H]2CCCCC(=O)*)N1

The target in assay [1] is T1, rat anti-GPRC5D antibody 7B4.
T1 construct: Rat IgG2b, kappa chain
In words: flow cytometry competition on KMS-34 cells: the peptide with the intramolecular disulfide bond is added together with a fixed amount of 7B4; readout: binding of 7B4 to human GPRC5D on the cells. On the procedure:
(§1) Human multiple myeloma cell line KMS-34 cells expressing GPRC5D were adjusted to a concentration of 2×10⁶ cells/mL with PBS containing 5% FBS, inoculated in an amount of 100 μL/well to a 96-well U-bottomed microplate, and centrifuged to remove a supernatant. Each rat anti-GPRC5D antibody (2A4, 2B1, and 7B4) adjusted to 7.5 μg/mL in Example 1)-7, or Rat IgG2b isotype control antibody (Medical & Biological Laboratories Co., Ltd. (MBL)) was added thereto in an amount of 100 μL/well. The two types of peptides used in Example 2)-2-1 were each adjusted to 17 ng/mL to 34 μg/mL with PBS and added in an amount of 100 μL/well to the wells containing the antibody dilution, and the plate was left standing at 4° C. for 1 hour. The cells were washed twice with PBS containing 5% FBS. Then, PE Goat Anti-Rat Ab (Becton, Dickinson and Company) diluted 100-fold with PBS containing 5% FBS was added thereto in an amount of 100 μL/well, and the plate was left standing at 4° C. for 1 hour. The cells were washed twice with PBS containing 5% FBS and then resuspended in PBS containing 5% FBS, followed by detection using a flow cytometer (FACSCanto™ II; Becton, Dickinson and Company). The data was analyzed using Flowjo (Tree Star, Inc.). The PE fluorescence intensity of the cell fraction was plotted to a histogram, and the mean fluorescence intensity (MFI) was calculated. […]

Assay [2] has as its target T2, rat anti-GPRC5D antibody 2A4.
T2 construct: Rat IgG2b, kappa chain
In words: flow cytometry competition on KMS-34 cells: the peptide with the intramolecular disulfide bond is added together with a fixed amount of 2A4; readout: binding of 2A4 to human GPRC5D on the cells. On the procedure: as §1

In assay [3] the target is T3, rat anti-GPRC5D antibody 2B1.
T3 construct: Rat IgG2b, kappa chain
In words: flow cytometry competition on KMS-34 cells: the peptide with the intramolecular disulfide bond is added together with a fixed amount of 2B1; blocked: binding of 2B1 to human GPRC5D on the cells. On the procedure: as §1

In assay [4] the target is T2, rat anti-GPRC5D antibody 2A4. Description: flow cytometry competition on KMS-34 cells: the peptide without the intramolecular disulfide bond is added together with a fixed amount of 2A4; readout: binding of 2A4 to human GPRC5D on the cells. The procedure: as §1
On the technique in general: A flow cytometer gives signals particle by particle.

Assay [5] addresses T3, rat anti-GPRC5D antibody 2B1. Description: flow cytometry competition on KMS-34 cells: the peptide without the intramolecular disulfide bond is added together with a fixed amount of 2B1; blocked: binding of 2B1 to human GPRC5D on the cells. The procedure: as §1
Assay [6] has as its target T1, rat anti-GPRC5D antibody 7B4. Description: flow cytometry competition on KMS-34 cells: the peptide without the intramolecular disulfide bond is added together with a fixed amount of 7B4; readout: binding of 7B4 to human GPRC5D on the cells. The procedure:
as §1

Assay [7] concerns the target B1. In words: ELISA, chemiluminescence: biotinylated amino-terminal peptide of human GPRC5D on NeutrAvidin, scFv detected with HRP anti-FLAG antibody. On the procedure:
(§2) NeutrAvidin diluted to 1 μg/mL with PBS was added in an amount of 50 μL/well to 96-well Maxi-sorp plate (Black, Nunc/Thermo Fisher Scientific Inc.), and the plate was left standing overnight at 4° C. for immobilization. After washing three times with an ELISA buffer, the amino-terminal peptide of the biotinylated human or cynomolgus monkey GPRC5D (used in Example 10)-1) diluted to 1 μg/mL with PBS was added thereto, and the plate was shaken at room temperature for 1 hour. After washing three times with an ELISA buffer, the plate was blocked with Blocker Casein and washed three times with an ELISA buffer. Then, the C2037, C3048, C3015, or C3022 scFv was added to the plate and reacted at room temperature for 2 hours. After washing three times with an ELISA buffer, a horseradish peroxidase (HRP)-labeled anti-FLAG antibody diluted 5000-fold with an ELISA buffer was added thereto in an amount of 50 μL/well and reacted at room temperature for 1 hour. After washing five times with an ELISA buffer, SuperSignal Pico ELISA Chemiluminescent substrate was added. After 10 minutes, the chemiluminescence was measured using a plate reader.
For orientation: ELISA stands for enzyme-linked immunosorbent assay.

Assay [8] addresses T4, human GPRC5D (human, UniProt Q9NZD1 1-345).
T4 construct: whole, on cells; also called hGPRC5D; G-protein coupled receptor family C group 5 member D
In words: flow cytometry on KMS-34 cells (endogenous human GPRC5D), anti-FLAG antibody and Alexa 488 anti-mouse IgG detection. On the procedure: The KMS-34 cells were recovered by centrifugation, washed twice with a FACS buffer (PBS containing 0.5% BSA and 2 mM EDTA, pH 7.4), and then suspended in the same solution as above. The C2037, C3048, C3015 or C3022 scFv was added to the obtained cell suspension, and the mixture was left standing at 4° C. for 2 hours. After washing twice with a FACS buffer, the cells were suspended by the addition of an anti-FLAG antibody (Sigma-Aldrich Corp.), and the mixture was further left standing at 4° C. for 1 hour. After washing twice with a FACS buffer, the cells were suspended by the addition of Alexa 488-labeled anti-mouse IgG antibody (Jackson ImmunoResearch Laboratories, Inc.), and the mixture was further left standing at 4° C. for 1 hour. After washing twice with a FACS buffer, the cells were fixed in 1% PFA (prepared from a 32% paraformaldehyde solution (Electron Microscopy Sciences)), followed by detection using a flow cytometer (FACSCanto™ II; Becton, Dickinson and Company). The data was analyzed using Flowjo (Tree Star, Inc.).

Assay [9] addresses B1. Description: SPR (Biacore T200), kinetic analysis: biotinylated amino-terminal peptide of human GPRC5D on Sensor Chip CAP, scFv as analyte. On the procedure: The binding activity of the anti-GPRC5D antibodies against the amino-terminal peptide of human GPRC5D was tested by SPR using Biacore T200. The amino-terminal peptide of biotinylated human GPRC5D diluted to 2 nM with HBS-EP+ (manufactured by GE Healthcare Bio-Sciences Corp.) was immobilized on Sensor Chip CAP (manufactured by GE Healthcare Bio-Sciences Corp.) by contact at a rate of 10 μL/min for 180 seconds. Then, Kd was calculated by kinetic analysis using a plurality of concentrations of each scFv diluted with HBS-EP+ as analytes.
On the technique in general: Surface plasmon resonance follows binding to a sensor surface in real time, without labels.

For assay [10], the target named is T5, amino-terminal peptide of cynomolgus monkey GPRC5D …(Biotin)-NH2 (cynomolgus monkey, C-terminal lysine carrying biotin, C-terminal amide).
T5 construct: also called amino-terminal peptide of biotinylated cynomolgus monkey GPRC5D
T5 peptide: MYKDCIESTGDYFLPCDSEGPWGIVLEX
In words: ELISA, chemiluminescence: biotinylated amino-terminal peptide of cynomolgus monkey GPRC5D on NeutrAvidin, scFv detected with HRP anti-FLAG antibody. The procedure:
as §2

Assay [11] addresses T4, human GPRC5D. In words: flow cytometry on KHM-1B cells (human GPRC5D), PE anti-human IgG Fc, rMFI over human IgG isotype control.
Another assay has as its target T6, mouse GPRC5D (mouse, UniProt Q9JIL6 1-344).
T6 construct: whole, on cells
T6 sequence (looked up): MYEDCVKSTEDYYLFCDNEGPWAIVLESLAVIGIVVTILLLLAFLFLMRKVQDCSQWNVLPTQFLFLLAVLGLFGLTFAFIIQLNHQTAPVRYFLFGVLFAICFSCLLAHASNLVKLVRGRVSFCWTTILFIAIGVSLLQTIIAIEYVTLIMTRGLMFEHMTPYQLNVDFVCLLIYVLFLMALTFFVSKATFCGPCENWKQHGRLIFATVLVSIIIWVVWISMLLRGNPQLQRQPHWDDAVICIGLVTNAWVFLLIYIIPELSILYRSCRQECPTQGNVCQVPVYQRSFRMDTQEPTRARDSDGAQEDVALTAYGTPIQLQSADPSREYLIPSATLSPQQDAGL
Description: flow cytometry, in the same way as in Example 5)-2.

T1 sequence (VH, as listed by the source, chain 1 of 2): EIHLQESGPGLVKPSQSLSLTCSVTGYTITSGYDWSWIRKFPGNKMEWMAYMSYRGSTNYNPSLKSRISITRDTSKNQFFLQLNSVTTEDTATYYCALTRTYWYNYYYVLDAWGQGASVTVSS
T1 sequence (VL, as listed by the source, chain 2 of 2): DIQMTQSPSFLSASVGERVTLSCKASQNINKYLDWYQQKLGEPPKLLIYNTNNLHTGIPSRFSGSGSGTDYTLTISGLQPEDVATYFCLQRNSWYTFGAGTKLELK
T2 sequence (VH, as listed by the source, chain 1 of 2): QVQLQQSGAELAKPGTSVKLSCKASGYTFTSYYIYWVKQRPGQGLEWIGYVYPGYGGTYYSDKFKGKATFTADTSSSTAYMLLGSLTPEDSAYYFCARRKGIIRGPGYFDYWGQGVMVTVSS
T2 sequence (VL, as listed by the source, chain 2 of 2): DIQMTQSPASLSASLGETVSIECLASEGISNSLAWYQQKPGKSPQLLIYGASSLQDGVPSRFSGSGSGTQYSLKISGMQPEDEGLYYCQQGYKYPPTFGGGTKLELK

On to B1, for which the binding result in assay [1] and in assay [2] was “no binding (tested: 5000 nM)” in each case. Moreover, in assay [3], the “IC50 (read off the curve)” value is about 50 nM.

B2: human GPRC5D amino-terminal peptide …(Biotin)-NH2, lacking an intramolecular disulfide bond (peptide)
peptide: MYKDCIESTGDYFLLCDAEGPWGIILE(Biotin)-NH2
modifications: cysteine pairing not given here
notes: Sigma-Aldrich synthetic peptide; also called amino-terminal peptide of human GPRC5D (disulfide bond absent)
Regarding B2, the binding result in assay [4] and in assay [6] was “no binding (tested: 5000 nM)” throughout. Further, the “IC50 (read off the curve)” value in [5] is about 50 nM.

B3: human antibody C3048 scFv (scFv)
scFv: QVQLVQSGAEVKKPGSSVKVSCKASGGTFSRYAISWVRQAPGQGLEWMGGIIPIFGTANYAQKFQGRVTITADQSTRTAYMDLGRLRSEDTAVYYCALEGFRDSLKRNPFDIWGQGTMVTVSSGGGGSGGGGSGGGGSQSVVTQPPSVSAAPGQKVTISCSGGTTNIGSNYVSWYQQLPGTAPKFLMYENNKRPSGIPDRFSGSKSGTSATLAITGLQTGDEATYYCSTWDSSLNTGLFGGGTKLTVL
notes: also called C3048 antibody scFv; not shown: FLAG and His tags at the carboxyl terminus
As to B3, the EC50 (read off the curve) (in general, the concentration giving half of the maximal effect) is about 3 nM in [7] and about 10 nM with human GPRC5D [8]. In assay [9], the Kd (in general, a measure of binding affinity in units of concentration) was found to be 0.36 nM. Besides, in assay [10], the binding result was “binds”.

B4: human chimeric 2B1 (antibody, human IgG1, V domains shown)
VH: QVTLKESGPGILQPSQTLSLTCTFSGFSLNTYDMGVGWIRQPSGKGLEWLANIWWDDDKYYNPSLRNRLTISKDTSNNQAFLKITNVDTADTATYYCARIETVRVSRKGFAHWGQGTLVTVSS
VL: ETVMTQSPTSMSTSIGERVTLNCKASQSVGINVDWYQQTPGQSPKLLIYGASNRHTGVPDRFTGSGFGRDFTLTISNVEAEDLAVYYCLQHGSIPPTFGGGTKLELKR
notes: Human IgG1 / kappa constant regions
Take B4: the “EC50 (read off the curve)” value with human GPRC5D [11] is about 10 nM. In addition, in the assay with mouse GPRC5D, the binding result is recorded as “no binding”.
